Measurements reported in a protein production outcome set (Wang et al. 2014).

Experiment: label from the status in PepcDB records
In the case of “MEAPKMALSDVKCRNARPASKLVKLSDGGGLQLWVQPTGSRLWRLAYRFGGKQKLLALGSYPLISLAEAREARDTAKRLLLRGIDPAQERKSQKASAEDTFRSIAEDYVDKLKKEGRADRTITKVKWLLDFAYPTFGDKSVREIDPATILAALRSVEVRGRYESARRMRSTIGSVFRYAIATARADVDPTIALRGALVGPTVTPRAAVTDPKALGGLLRAINAFDGQPTTRAALKLMALLFPRPGELRAAGWDEFDFESSVWSIPEGRMKMRRPHRVPLSTQAVSVLTSLREISGGGSLLFPSVRSGSRPISDNTLNAALRRMGYGKEEATAHGFRATASTLLNECGKWHPDAVERQLAHIENNDVRRAYARAEHWEERVRMMQWWADYLDELESKNSRVVSIGGREASLLSIHPREGLVWKPTATVRQTTSRTSNLRKSH”, the protein production is reported as “failed”.
With “MEATAVNPSIVTASRTVQPYRRLSTLSLRFPTYRNKRVSPFTLTITRCSTTKSREAGQDSSISLKRGLVFDLGVSKDSWHSEEIGSPVVKRFLSDNEERWYMWYHGSSKQNPVSDSIGLAVSNNGIHWERGNGKVESSEDVGLVMSCGEDWWGFDTASVRPGEVVIMSSSKVRANSSVYWMYYTGYTKETVEFQSQDFTSVLGNPERFHLCDENAEKSRVYYRSLPGLAISQDGRHWARIEGEHHSGALFDVGSEKDWDFLYIASPHVVFHGDGDLRMYYHSFDEKTGEFCIGMARSRDGIKWLKLGKILGGRKSEKDGLGFFDELGGRYPCVTRNKRDESYVMAYEGVDRTGKTSIGFAVSKDGIKDWKRVQDEEAVIAVGEGGAWDNEGVGCPYLIEMDGDSDHQWRLYYRGVGNGGRTAMRGEQFELEEDRDGPLELLQSLRSKATELLLREEWEESIKVYTEFIDLSRRQVSSTGGSDPDPDSIAKLRKSLCLALCNRAEARARLRDFLEAMRDCDQALEIEKTHFKTLLCKGKVLLGLSKYSLALECFKTALLDPQASDNLETVTVYIEKCKKLEFQAKTGAFDLSDWILSEFRGKCPELAEFIGSIEIKKSELSGRGLFATKNIVAGTLVLVTKAVAIERGILGNGECGEKAQLIMWKNFVEEVTESVRKCGRTRRVVSALSTGQGEDSLEIPEIALFRPDEAFETCGDWKQSLDTEKLLSILDVNSLVEDAVSGKVMGKNKEYYGVGLWTLASFINHSCIPNARRLHVGDYVIVHASRDIKTGEEISFAYFDVLSPLEKRKEMAESWGFCCGCSRCKFESVLYATNQEVREFEMGLERGVDAGNAVYMVEEGMKRWKVKGKDKGLLRASYWGVYDEIYNSERLMKRWGRKIPTMEVVVDSVSDVVGSDERLMKMAVEGMMKKHGGFSNIVEMEKIMKLGKGVYGKVVSKKKAMKTLLGIE” the protein production was “failed”.
With “MEAWIFEIMRAVGRFFLHPAVYVFLISSIFVGYLRMLRERKDFSFKVYDIWFELRTSLLAGVKYGLIVSIITIGLGLVVSKASLWAILLWTLLFGLTAMYRYLSAAYTFSVAIVCVLLSSKLPVSFLQLGEGEENTIVSLAILLGIMLVVEGLLISKNAVGYSTPKIRKGKRGLKIGLHESKRLWIVPIFILVPGEAVTQFISWWPVVSIGSHTYSLFLVPFLIGFMRRIRSYEPTEALLFTGRRVYGLAGLVLVLGIASYWWHVLAIIAMGVAMLGRFTISMQEKIADETRPAYFAARNDGLVVLDTIPNTIGAELNLLPGEMITKVNGVIPRSAEEFYDALQTKTTGAFCKLEVLDTNGELRLAQTALYAGGHHELGIVFVQQEHEWDSEAM” the protein production was “failed”.
With “MECAEKVEAEIPGQAGRRAGKPSRTYYLEVYGCSLSEFDALIMASRLEEAGYRRVARPEDADVILVNTCAVRLDTEQRIAERLEKLRLQLPDRKYVVAGCLVKARPGLVARLVPEASLLAPQAVERVLDAVDALESGRRLVVLDGRRDTRSMPQLPITDAVVTVMIQEGCLGDCSFCITKVARRQVRSYSPRVIVERVREAVEKGAREIRLTGTDVAVYGVDLPGKPNLADLVAAILEKVEGDYRIRVGMMTPDQVEPYLDSLLDVYRDERVYKYFHLPVQSGDDEVLKIMKRNYTVSEYKAIHRRIKSRFPDAMIATDIIVGHPGETWEAFWNTVRLVEELRFEKVHLAQYSLRPHTEAASMEQVPDSVKKERSRILGKIVAEIGLEINGSYVGRRVRALVTERSWREGSMTGRLDNYTPIILPYEERAMGRWVYAEVEEATFFDLRSSKFEPAPLEHHHHHH” the protein production was “failed”.
With “MEDFYLNSRGLAGYFEAQWFDKFVEDKQVDAITSESKLVPLSFAKSSHCSQVADFITQAVSKNGKPPHALLGVGAALGRNYYELVQRLDSLKQATLVEPSGMLLNGLKQLLVEEQQVELTYIHGLNTLKTVEVDNRELVQNCAHVDLELINQPLEKDTVSKFYDLVVCLNVLDQCESPLRVINALKQATQIGGVLVVSCTYQWNAKHIKDRAEAVDDIKAYFGEDWRFVSEAEHEYRMRFNERYAMQFLSHVVAYVRTT” the protein production was “failed”.
In the case of “MEDGIENTSPFNGNGESGFFKLPDREILESFRLQKVFPDSPFGFPSGHVALTTALWGGASRVFNSRTAGRLAPMVVLLMAFSRMYLGRHFLGDVIGGAALGLTLLVVFTYFLKSPLKDDFFEKENFKLAFRQKNLFFYSAMFAVPVVFVSLSLISGEVAGFFLGTNTAYLLIIRKGLPEDEGSTGQRALRVFITLMMFGLSALVLDAGFGIIGIAGYPDDTLIEFLKSFIPAFTIWISVSICIKLGLYNIASTEQIE”, the protein production is reported as “failed”.
With “MEDHHHLPENLKPFFHRATEAQERLAKLEAALASTKTDIPDAKLVEENKQLQSKLEEANATVKQEQTKVKDLTIENAKHKYRILHLVRALKDADQKLERLSK” the protein production was “failed”.
For “MEDIIVVENLVKKFGDFEAVKGVSFSVKKGEIFAFLGPNGAGKTTTIHMLTTLLKPTSGKAWVAGHDVLKEPREVRRKIGIVFQDQSLDRELTAYENMYIHGKIYGYGGEKLKKRILELLEFVELLEFKDKPVKTFSGGMARRLEIARSLIHEPEVLFLDEPTIGLDPHTRAHMWEYISKMKKEHNMTIFLTTHYMDEAEQLADRVAIIDHGKIIALGTPTELKRMVGKEIIYVRFSEAVECLEGDFIESCRKLPDGRLELNVEDSGRAIPKIFELAQQKGLKIEEITYHKPTLNDVFLHLTGRELREEGPENSFKTMARMRMRMRR”, the protein production was “not failed”.
With “MEDPLGRLEWIKFLSAFYDKEDKAENYFNQQVSKVMATENKVSSLKKPKVAFGMVDNGKVYIPAKNSYAAKMVDMAGGDYIFKDLNNKSGYITLEDFYSKSKDADVLIYSSSKEYTPSLKSMLSAAPILKTIKPVKNKKVWCFGKDYYQAIDKTDEIIEDLASIFHPESFKGLEHHHHHH” the protein production was “failed”.
With “MEDSGAILCQISIFKDMLDQVNREIEANIQVTREIESQIGACSEIESSLSLKEPELTRSFLASQFEISGLISVTADSRNSLKLLEDEICCLRSEHSELITKTNREAVNINNCIVLDFV” the protein production was “failed”.
With “MEDSGKTFSSEEEEANYWKDLAMTYKQRAENTQEELREFQEGSREYEAELETQLQQIETRNRDLLSENNRLRMELETIKEKFEVQHSEGYRQISALEDDLAQTKAIKDQLQKYIRELEQANDDLERAKRATIMSLEDFEQRLNQAIERNAFLESELDEKENLLESVQRLKDEARDLRQELAVQQKQEKPRTPMPSSVEAERTDTAVQATGSVPSTPIAHRGPSSSLNTPGSFRRGLDDSTGGTPLTPAARISALNIVGDLLRKVGALESKLASCRNLVYDQSPNRTGGPASGRSSKNRDGGERRPSSTSVPLGDKGLGKRLEFGKPPSHMSSSPLPSAQGVVKMLL” the protein production was “failed”.
For “MEEASEGGGNDRVRNLQSEVEGVKNIMTQNVERILARGENLEHLRNKTEDLEATSEHFKTTSQKVARKFWWKNVKMIVLICVIVFIIILFIVLFATGAFS”, the protein production was “failed”.
For “MEEEEARQVVIDNDLKKKIKETVKKILKRSSLLEITEIKAREEASSELNLDLSRDPYKIIVREAVDSFIEKAIMTIDTEMGKLHTQIVEDVDGEVTENATKTTTKKKKKKKAKKKVEEEESSPA”, the protein production was “failed”.
With “MEEGKKMKRIIGMIVSLALLAGLLAGCSTSATGSNINTPAAQAEKTPGAGGSGAEEAAWPRTIVDATGKEITLTEQPQRIAILHSLYLEYFLALGTPPIASAGASTGDAMKALGEWETLKPYAGTAKIIDLGSARDLNLEAILGANPDVIVTFKGQGNLDKIYEQLEQIAPVILVDFSAPWQEQILACAEIVNKEADAQKLIKEIEDSVQSAKEKLSRHQDKTIAIFRTDGGKAFVTRGNKDYYDTFGIAKPEGYPDDYETLSLEAVAEMNPDYIIFQDFITTSQAFVKTQEASSVWQAMEAVKKGQVVYFDDSLNTFGPLATKLTAEKLIQIISD” the protein production was “failed”.
With “MEEKRLVIVGTAHVSKRSVEEVAEVIEREKPDAVAVELCPRRYHALVHGQREEISVADVIRKGNVFMLLFQLILAYFQRKVGEETGVKPGSEMLAAIEKAREAGADVLLIDRDIGLTFTRFWQKLTFVEKIKLIFHLVRSTFSGDEIEVDEMLEEDVLDMLVKEFRKISPNAAKVLIDERDVYMAANLLNALSRYNRIVAVVGAGHRKGIEEALLKLKENPV” the protein production was “failed”.
With “MEEKSKYLSLVGAGALIGSISTVALLKLLSRSSLKQLNENPETNFLAGNGIESETRPDTVANGQDLLKDEIVSEHLTRNIQFFGLESQHKVTGSYVVVIGLGGVGSHAASMLLRSGVGKLLLVDFDQVSLSSLNRHAVATRADVGIPKAMCLKKHFSSIFPECHIEAKVMLYDSSSEEEILSGKPDFVLDCIDNIDTKVGLLAACVKRGLKVLSATGAGARADPTRIRVADIRESTIDPLSRSVRHRLRRKHGIEGGIPVVFSLEKPKAKLLPFEGTNGEDENPLDYQVVPGFRVRIIPVLGTIPAIFGQIMASYVITQLAGVQVQMEPIVNLDLDHYRLLHQRLIEHEETVYGTSAEVEVDVEEVMYIVKELWHGRSARDETAKDVGRGMWRAMNELMLVRWDAKKPATVSNLVLLKFKEADEHETKTLEEVKESETEFFERVSCVLKKAELDFYG” the protein production was “failed”.
For “MEELDEKLANRVQVSKRAVAKIVQVIDRLMQRNEKITHVLKGDSLASAGSGSGAGAGGEEEQQQASGDAETTTSSAGVHALEETLKQTHIEIMSENHKLQNLNTSLHEKFHTMSLKMKEYQDAHTAKETENAELKNQIDELQYDLEKIHCRNDKLENHLAEAIEKLKAYHQIYGDPNKSTNSAKTPTTTGSGGATTSVNSQLLEELQKELEEYRELAN”, the protein production was “failed”.
With “MEEMGSRSDTIMVASLNRETKEIKLVSVYRDTLLQLSDGTYNKANAAYAYGGEEEAVAMLNKNLDLNIEHYVSVDFSVLVHVIDALGGIDINVEEAENGMDIIPYLNNYVVEVIKNTGVDSAPFTQLGQQHLNGVQATAYARLRYGGGDDYKRTERQRQVLEQIAIKAQKAKLSTINKIIDKVFDNVKTNFTLTETIAYAKDVKSYIFGETQGFPYESTTADLDVGNSVVATDLASDVTKLHQFLFGENDYTPSSTVQSISEDISNSTYDTGESYDTEYDEYGYSQDYSGYDSGYTDNSYGTGGYQDSGYGDGSSGNGYTEDTGGDYVPPSDGGGTDSGSSDSNSQIPDTGTGDSGDTGGESLELEHHHHHH” the protein production was “not failed”.
In the case of “MEEVYHDEPEKFNHILHLIRDYFNHRDDRARITACMGELMRDHLNLLVRFFDFFPAEASEGLAQLQTIAATSVSPDSTIDDAVSYINTVKEAFHDEPAKYYEFFQLFYDIRYRLIDVAGGITRVEELLKAHKNLLVRLNAFLPPEAQRILHLKIEQRAASDINKRKRVASFIGKLKERFQGDDRHVYESFLEILTMYQEGNKSVNDLYQEVGFLVGTLWLDYTFS”, the protein production is reported as “failed”.
In the case of “MEEWSASEACLFEEALEKYGKDFNDIRQDFLPWKSLTSIIEYYYMWKTTDRYVQQKR”, the protein production is reported as “not failed”.
With “MEFDKSVQNYLIGANFSSGLVLDISKKENYILDRISILEQLSKDKKIIHLGCCDHIPLIQNKIENNTWLHSRLCSNSKRCIGVDINKDGIKYLKNNLGYEDVLCGDIIEEELNAIKEEHWDYMILGEILEHIDNPCLFLSDVQKKYHGIVDRLVITVPNALSYQNMKYTFLNKEYINTDHRYWFTPYTLGKIVTLAGMEVEKFFFCVPFPRDNGVFYALNPKSILFDFICKRYPPTRETLLMVAVV” the protein production was “failed”.
